Assay [1] addresses F protein on intact RSV particles (Example 11, strain not stated) (RSV, strain not stated). Briefly: competition ELISA: RSV particles pre-incubated with inhibiting mAb at 20 ug/mL, then added to plates coated with AR201 (competitor). Background: ELISA stands for enzyme-linked immunosorbent assay.
Assay [2] shares this target. Briefly: competition ELISA: RSV particles pre-incubated with inhibiting mAb at 20 ug/mL, then added to plates coated with palivizumab (competitor, self).
In assay [3] the target is F protein of RSV reference strain RSV-B (ATCC VR 1580), on virus (RSV-B (ATCC VR 1580)) (UniProt P13843). Nature of the assay: cell-based or functional assay.
F protein of RSV reference strain RSV-B (ATCC VR 1580), on virus (RSV-B (ATCC VR 1580)), sequence (P13843 26-574): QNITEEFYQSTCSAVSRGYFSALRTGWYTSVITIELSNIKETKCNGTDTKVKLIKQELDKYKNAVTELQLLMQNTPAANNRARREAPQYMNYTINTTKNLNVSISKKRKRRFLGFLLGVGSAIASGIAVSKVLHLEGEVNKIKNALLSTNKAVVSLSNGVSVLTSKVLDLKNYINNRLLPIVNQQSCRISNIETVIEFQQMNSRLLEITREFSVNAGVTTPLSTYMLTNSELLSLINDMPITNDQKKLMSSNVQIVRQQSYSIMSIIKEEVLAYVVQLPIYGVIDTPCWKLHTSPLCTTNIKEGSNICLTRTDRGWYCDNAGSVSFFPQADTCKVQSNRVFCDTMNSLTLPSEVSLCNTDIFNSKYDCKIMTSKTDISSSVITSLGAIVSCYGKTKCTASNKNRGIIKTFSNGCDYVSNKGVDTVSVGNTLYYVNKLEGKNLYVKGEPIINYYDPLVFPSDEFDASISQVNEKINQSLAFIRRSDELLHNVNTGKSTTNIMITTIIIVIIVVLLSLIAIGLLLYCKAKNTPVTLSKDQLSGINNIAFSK
In assay [4] the target is F protein of RSV reference strain RSV-A Long (ATCC VR-26), on virus (RSV-A Long (ATCC VR-26)) (UniProt P12568). Briefly: cell-based or functional assay.
F protein of RSV reference strain RSV-A Long (ATCC VR-26), on virus (RSV-A Long (ATCC VR-26)), sequence (P12568 26-574): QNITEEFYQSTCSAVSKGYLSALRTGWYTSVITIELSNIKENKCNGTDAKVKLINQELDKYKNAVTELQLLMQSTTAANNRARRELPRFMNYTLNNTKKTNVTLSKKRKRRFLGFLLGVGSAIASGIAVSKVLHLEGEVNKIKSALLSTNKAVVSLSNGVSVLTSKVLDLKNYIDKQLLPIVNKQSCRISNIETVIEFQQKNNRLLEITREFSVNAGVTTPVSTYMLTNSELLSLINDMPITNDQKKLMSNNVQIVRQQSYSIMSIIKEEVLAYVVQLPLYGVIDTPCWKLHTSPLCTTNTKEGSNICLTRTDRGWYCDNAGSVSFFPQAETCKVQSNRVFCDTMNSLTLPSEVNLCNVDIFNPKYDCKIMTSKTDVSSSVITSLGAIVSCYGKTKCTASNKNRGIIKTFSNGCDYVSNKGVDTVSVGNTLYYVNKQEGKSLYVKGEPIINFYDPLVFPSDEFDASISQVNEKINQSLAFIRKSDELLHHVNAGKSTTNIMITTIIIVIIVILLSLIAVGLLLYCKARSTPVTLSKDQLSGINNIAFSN
Assay [5] addresses F protein on intact RSV particles (Example 11, strain not stated) (RSV, strain not stated). Nature of the assay: competition ELISA: RSV particles pre-incubated with control IgG at 20 ug/mL, plates coated with AR201; this is the reference set to 100 %.
Assay [6] shares this target. Briefly: competition ELISA: RSV particles pre-incubated with control IgG at 20 ug/mL, plates coated with palivizumab; this is the reference set to 100 %.

palivizumab (antibody): the binding of RSV to the coated mAb, % of binding with control IgG in assay [1] worked out at 29.2%; in assay [2], 35.3%. Further, the Estimated half-maximal effective antibody concentration (ng/mL), plaque neutralisation on Vero cells in assay [3] was 200 ng/mL; in assay [4] it was 100 ng/mL.

With “unrelated fully human monoclonal IgG1 antibody (control)”, the binding of RSV to the coated mAb, % of binding with control IgG in assay [5] and in assay [6] was 100% each time. Further, the Estimated half-maximal effective antibody concentration (ng/mL), plaque neutralisation on Vero cells in assay [3] and in assay [4] was over 1000 ng/mL each time.

Source of the values: patent US20180030119A1.
